Measured values: the DeepSol protein solubility set

assay: soluble on expression in E. coli; label from the status in PepcDB or PDB records

Row | Sequence | soluble on expression in E. coli
1 | MSLESMLSHPPIPIADMAEHTERLKANDSLKLSQEYESIDPGQQFTWEHSNLEVNKPKNRYANVIAYDHSRVILQPIEGIMGSDYINANYVDGYRRQNAYIATQGPLPETFGDFWRMVWEQRSATIVMMTRLEEKSRIKCDQYWPNRGTETYGFIQVTLLDTIELATFCVRTFSLHKNGSSEKREVRQFQFTAWPDHGVPEYPTPFLAFLRRVKTCNPPDAGPIVVHCSAGVGRTGCFIVIDAMLERIKPEKTVDVYGHVTLMRSQRNYMVQTEDQYSFIHEALLEAVGCGNTEVPARSLYAYIQKLAQVEPGEHVTGMELEFKRLANSKAHTSRFISANLPCNKFKNRLVNIMPYESTRVCLQPIRGVEGSDYINASFIDGYRQQKAYIATQGPLAETTEDFWRMLWENNSTIVVMLTKLREMGREKCHQYWPAERSARYQYFVVDPMAEYNMPQYILREFKVTDARDGQSRTVRQFQFTDWPEQGVPKSGEGFIDFIGQVHKTKEQFGQDGPISVHCSAGVGRTGVFITLSIVLERMRYEGVVDIFQTVKMLRTQRPAMVQTEDEYQFCYQAALEYLGSFDHYATEGHHHHHH | soluble
2 | MRRVDQPRPPGTPFGLREQTTSNADAPARTAPPAHPAPERPTGMLGGLTRYVPGDRSGRPPAMPAAAETSRRPTTSARPLPYGGSGSAARMNEAAGHPLRMPQLPQLSDIERARFHSVTTDSQHLRPVRPRMPPPVGASPLRRSTALRPYHDVLSQWQRHYNADRNRWHSAWRQANSNNPQIETRTGRALKATADLLEDATQPGRVALELRSVPLPQFPDQAFRLSHLQHMTIDAAGLMELPDTMQQFAGLETLTLARNPLRALPASIASLNRLRELSIRACPELTELPEPLASTDASGEHQGLVNLQSLRLEWTGIRSLPASIANLQNLKSLKIRNSPLSALGPAIHHLPKLEELDLRGCTALRNYPPIFGGRAPLKRLILKDCSNLLTLPLDIHRLTQLEKLDLRGCVNLSRLPSLIAQLPANCIILVPPHLQAQLDQHRPVARPAEPGRTGPTTPALSPSAAGDRAGPSSSATASELLLTAALERIEDTAQAMLSTVIDEERNPFLEGAPSYLPGKRPTDVTTFGQVPALRDMLAESRDLEFLQRVSDMAGPSPRIEDPSEEGLARHYTNVSNWKAQKSAHLGIVDHLGQFVYHEGSPLDVATLAKAVQMWKTRELIVHAHPQDRARFPELAVHIPEQVSDDSDSEQQTSPEPSGHQ | soluble
3 | MEEWIQYARDMAKAEKELEIELWVIISFYRTTEQGGKVLLFRYDLPRKVADKYDWVVRWRRARLTCQYPKGNVTHTYCLYDRHSGEDYSFGSCLSSLAAAKAQVTRMERRIREYTTWQKQNNLFFDEQTDEMLQKAVTKLKIKKENVQEAERRLQRKAEKHQREMRK | not soluble
4 | MGSDKIHHHHHHMGFLAREKVHLKKVVIGGSQDWLKHSYKLFKAIMNRIFGYGNKKSHDQLLQESNQSMNQAQQSLSNRISQLDTQIAQLNFQLQNIQKNLQRSNNKQPSLRKQALKILNKRKQLENMKDSLDSQSWSMTQAQLTNDNLQNTMITINALKQTNNAMKAQYGKINIDKLQDMQDEMLDLIEQGDELQEVLAMNNNSGELDDISDAELDAELDALAQEDFTLPTSENSLGNDMPSYLLGANAPPAFIDEEPNLDTEDKNKALESAQ | not soluble
5 | MDQLREIVDPDQPQTLRQQAEGWGKMAELLREYSLLLDERLRLVEHSWTGEAATMYFDEVRRVQEYIEDSAERATANCGLWCVIATMAGIAKHDVSHIHQLWKDLDAATDAVGLGFVAGVFGADEALEDFQRKPFDAASRQIMEVTMSAADESYARMRDFEEFEPPPSVDDSGLELQSVSTPAPPSGTAVAPPSTTVTATPAVPLGPTAPRPVVPSVIGSRPGMMPMARPMMGPGHTVPPVIGQRDGGSAQPGATGRLIGRDGVVRVTPDVDLRDPNASRAHYGGDDVNRGVIKSQNPQRVADEAQFKLEEEVRRLRERAYAHRVETLTADHSQYAIPGIVGDDSAWDTKAHDPGPVAFDVRRLRHRPVVDDWTLAVRRH | not soluble
6 | MAYPVSPIAGRRSNWRSFAASLNLEDGPASSDSTSSPSEQTSDGGEVYGDPSENLNSRKLKSDELKSLLADSERSKLLKKLSEANQYNRFLKRQLQMKDNDVVKFKSELAVMELELQALVALAEEIANFDVPSGSRKINGKYIQSHLLTRLEAVHDKVMEQIKDVDSLKHQEISVFWVGIAENVQIMGSFDGWSQGEAMSMEYSGYQARFSATLNLRPGRYEIKFLVDGEWRLSLEYPIDGEGSMQNNILVVN | not soluble
7 | MLFHLPKLPAELRVSHLNARVNEQRKKIAQTTASKLEFLQLTQQLVKEAKIRKKNNQKIFVLDFKGDIQASAVDQLREEITLILATAKSGKDRVVLRLESPGGMVHGYGLAAAQLVRLRDAGFHLTIVVDKVAASGGYMMACIANEIVSAPFAILGSIGVVAQVPNFNRLLKEHNVDFELYTAGEYKRTVTMFGENTPEGKAKFEEELKQTHALFKHFVEKYRPQLNVEKVATGEHWYGQDALDLNLVDKLQTSDEYLLSLLPQHDVYVITTRKKPTLGERLGLQAAQLADSFIPAVMNKVVESLVNANSHLVQMRDPKILEHHHHHH | not soluble
8 | MKKSYLVTPLVAGALILPAALPATAAQASAPAPAAVSTVNKTALTTDQIKAERSALNSRINMLQETQKAIPGSQYADQIEDLIKTALDLSGAIDTIAHGGVPAYDPATIVPRIHLAIDAADAIKTGNTTLQHKVKKAHVELGLEIAKASIVAINPASSVAQVQDEIKALKARIDKVSAYPDLSKDDTATIAYKQTLRKTIHEVRVGRNKNIVGKKDQAVVDTLNKEISKADKVRANAKSTVAQVDTAVDQLRAAYQTALNAPDKAKKLEHHHHHH | not soluble
9 | MGSSHHHHHHSSGLVPRGSHMSGALKENSGKPSEVEYTHFKDLQALEMERGRLYETIVVTWDDSMVGNAAPIGVLCTGDDTVTLYLYQGTRTVENVLNNGRFTVNVTLDPLIFTDSTLGDLEEDMFSHYRDFLHLRGADAFFTAEVVSVKKLVKRDRFGESELHVVKARAGDVMRAESFRMALNRGIYAVIESLIAYTRAEFSDPLVLRERIAEMNRVARKVGGPREKEAMRRIIQALESKIS | soluble
10 | AHHHHHHGSSKDRMVELLQEHFELNLYEARAYVALVAFGVLTPAELASVSEVPAPRTYDVLRSLEKKGFAMTQPGKTNKYRPVHPANVLEKFIQDWQERVKEELEAKKKAKEELLELMAPLIETEVPKYGVERVWVVRGIKNSTLKTKEMLEEAQNEILLADDGFIAVNLEDDIIKAVDRGVKTKILLTKNLLPRLKASKIIDYAKEGKLELRALDKFDLPMLICDEEVFFALEDLAARYFNYETQVWIKDHRVVALFKEKFNEYWEKAEKV | soluble
11 | MQVLSEATPMTNGEVYALLRRRRDERNAARHPPFGLQPVLADSHQRAAVATGAAAATAVAPSAPASASAISRAASVMSHNSVGQHSGSKAAPAGAIESAASAAAASTASILASPSSVHLVVLLTEVTMLNYIANHSSLLLESARPTPAGVRVRTCTPRDVYGPTSVYNRVVGTEGRSDAAVGASATAAGSLLDAELVSSCYAKLASHRPGTRGHVRGVEELLEHFEEVGRAQERLYAAGVRRAVQQLWRRRLWVPAEGLYPPPSPPFATTAPSLSNGSALVKAEPVAEEDVDGTAEAVQRLSQDKAARQSGAGETNHDAEGAQPTNASHLVTPLLLEPTPLWGPAARNGGGKGSVDGGAATASMAHSPLSYHVQLQLQQASRSLLSEAEVLQLVVGRPQRALDVYRLLDDVDDRLQYREEAVNAFVEAVTGVFAE | not soluble
12 | GHMSTPLTLIATITAAPGHAEALERELRALVAPSRAEAGCLQYDLHQDRHDSHLFYMIEQWRDDAALERHQNTEHFLRFSRGNEALLQNVKIDQLYRLA | soluble
13 | MKLATLKNNTRDGQLVVVNRALDKAVVVSHIAATLQAALDNWSEISPKLAEVYQSLNNNEITDTLVFEQAACESPLPRAYQWADGSAYVNHVELVRKARNAEMPATFWTDPLMYQGGSDAFIGPRDDISIASEEYGIDFESEVAVITDDVPMGISVEQAANHIKLLMLVNDVSLRNLIPGELAKGFGFFASKPSSAFSPVAVTPDELGDAWDGKKLHLPLTTHLNETLFGQPNCGVDMTFDFPTIVAHAAKTRPLSTGCVIGSGTISNYDRSVGSSCLAEIRMLEIIADGKPTTPFMSFGDTVRIEMFDNEGASIFGSIDQKVVEYKAQ | not soluble
14 | MGSDKIHHHHHHMIINKHVMRSTNEKQVLQQVINEGPISRSQISRNLSLNKVTVSDIYNQLLRTQFIKEIGCGVSTKNGGRKPVMAELNVNYGFVASIDMTADAVKLMYSRLNGKILHFQSFKTSDMTLTDVIDLIEDQLRNVDDYGTIHGLMGVAIALDGIIYENKILKTPIKGLTHFDLAKYLRDKLRIPVVLEKKANLTAVFERDFHDNEIFDNVVSVVVRDQIHAGIVADSRLYSGHEGEAGEVGTALLEDRHVEDHLASVNDYASEKALWARLKAIKHVERLDLTTVKHDYINHDPEVTKVFDDFVYYLSKVIANVSTAFAPDVVVLNTTVLEILPQLLTNVRESTAKLTSPSRQVPIIATKNVQSAALLGGASVIIHQALGLESLKMQFS | not soluble
15 | MEKYMSLLTRIEEMMQSTSYQEGDRLPSIRQLSARYQVSKSTVIRALQELEKRHLIYSVPKSGYYIVKKSGKSKSGQPGPIDFATSAPDPDVFPYLDFQHCINKAIDTYKNDLFIYGTPKGLPSLIRVLRKLLATQQVFADERHIFITSGVQQALSLLCAMPFPNGKEKIAIEQPGYHLMVEQLETLGIPAIGVKRTEEGLDIAKVERLFQTESIKFFYTMPRFHNPLGCSLSERDKQELVRLAEAYDVYLVEDDYLGDLEENKKADPLYAYDLSSHVIYLKSFSKMMFPGLRVGAAVLPEALTDTFYAYKKLNDIDCSMISQAALEIYLKSGMYGRHKEKIRDSYKERSLRLHQAIRTHRQLGSGRFTFSSGQAPCMHTHLVLPQDLPASRVIHRLEKQGVLLEAIDRHYLSDYPKENLLKINISNVKTEDIERGVKLLMSHL | not soluble
16 | MIKVDMTVDAKGLSCPMPIVRTKKAINELQPGQVLEVQATDKGSKADIKAWAESTGHQYLGTIEENGVLKHYIRKSAEHETRKETTFPHVVSNEELQEKLHDPDSFVLDVREPAEYAFGHIPGAVSIPLGELENRMAELPKDKTIYVVCRTGTRSDLAAQKLAEKGFDRVRNVIPGMSQWNGPLDSAQS | soluble
17 | MPLDGEYEPSPTQWVREQVERYESSGGTEGTTLMDTGLPVIVLTTRGARSGKLRKTPLMRVEHEGRYAVVASLGGAPKHPVWYFNVKADPRVELQDGPVKQDMTAREVTGAEKARWWERAVAAYPSYADYQKKTEREIPVFVLEPSHAG | not soluble
18 | MDMNFFKHDAFSATTMMKAIENYEFQPGLISSLNLFEEVETSTTVVGIERRDNTLSLIQTSERGAPLVEGDRDGRNLRFFKTTRIAKSDTVKSEEIQNRREFGTEDQLETAMKYIARKQKKLISEIELTWENMQLGAVQGVVLDADGSVIVDWYKEWEIAPPKPIDFKLNNETTNVADHVDQVIMKMIEASKGAFSDRSRIIGLCGNEFFSKLKNHKTIRETYLNTALAQTLNSAGGVATPSAIGSGSFGSFDFAGVTFINYRSIHNYNVSAKAGTKRAIGIKPDECQFLPANAPGVFQKTFAPGESLDFANTVGKPLYTMLIVDNDRNAWVKPEVYSYPLYICTRPEMLFKAVSGGK | not soluble
19 | MEEEVSRKTVAISVQAAKLTGRVLFMACQKFLAGVQKHNRDALTPHGRQTVKQLMGHTGQSNSIQLKGDARLFDRVARKFNVDYAFHKVGPKDYLLFFKAGQADAITAAFSEYTKRVMARQNDKPSIRRGLRQAMGRVKPRQKEREKTREAVQER | not soluble
20 | MSLASNVLLQASRLGEMVIKRGGATGLMVHRDTKENNLNVKFKFTSENQERIKAIMDIYPEGHKAGALIPLLDLAQRQHGWLPISAMHEVAKILEVPRMRAYEVATFYTMFNRQPVGKYFLQVCATTPCMLRGAETITETIEKKLGIHAGETTKDGLFTLAEVECLGACVNAPMIQINDDYFEDLTPKDVNEILDDLKAGRKPAAGPRSGRLAAEPFGELTSLKETPPGPGFGLQAALK | not soluble
